Experimental data as given in patent US20260109776A1 (Amgen, published 2026).

T1: cynomolgus monkey CD40 on cells (cynomolgus monkey, UniProt P25942 21-277 (human entry))
T1 construct: also called cyno CD40 on HEK293 cells; CD40 on cynomolgus monkey B cells
T1 chain: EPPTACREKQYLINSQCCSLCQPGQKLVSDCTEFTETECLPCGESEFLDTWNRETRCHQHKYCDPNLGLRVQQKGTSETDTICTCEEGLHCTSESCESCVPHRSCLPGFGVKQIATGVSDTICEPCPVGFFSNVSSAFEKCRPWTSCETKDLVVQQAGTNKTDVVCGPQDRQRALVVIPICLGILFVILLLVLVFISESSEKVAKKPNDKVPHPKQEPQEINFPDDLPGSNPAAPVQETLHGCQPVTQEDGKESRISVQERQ

T2: mouse CD40 on cells (mouse, UniProt P27512 20-289)
T2 construct: whole, on cells; also called mouse CD40 on HEK293 cells; CD40 on mouse B cells
T2 sequence (looked up): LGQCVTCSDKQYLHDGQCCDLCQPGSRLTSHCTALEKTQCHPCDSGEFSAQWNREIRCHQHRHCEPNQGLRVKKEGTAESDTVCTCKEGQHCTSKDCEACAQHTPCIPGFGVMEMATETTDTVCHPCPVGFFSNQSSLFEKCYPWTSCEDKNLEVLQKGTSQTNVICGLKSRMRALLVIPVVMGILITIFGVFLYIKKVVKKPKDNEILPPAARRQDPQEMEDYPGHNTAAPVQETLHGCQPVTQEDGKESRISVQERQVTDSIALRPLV

T3: human TNFR1 (human, UniProt P19438 30-455)
T3 construct: whole, on cells
T3 sequence (looked up): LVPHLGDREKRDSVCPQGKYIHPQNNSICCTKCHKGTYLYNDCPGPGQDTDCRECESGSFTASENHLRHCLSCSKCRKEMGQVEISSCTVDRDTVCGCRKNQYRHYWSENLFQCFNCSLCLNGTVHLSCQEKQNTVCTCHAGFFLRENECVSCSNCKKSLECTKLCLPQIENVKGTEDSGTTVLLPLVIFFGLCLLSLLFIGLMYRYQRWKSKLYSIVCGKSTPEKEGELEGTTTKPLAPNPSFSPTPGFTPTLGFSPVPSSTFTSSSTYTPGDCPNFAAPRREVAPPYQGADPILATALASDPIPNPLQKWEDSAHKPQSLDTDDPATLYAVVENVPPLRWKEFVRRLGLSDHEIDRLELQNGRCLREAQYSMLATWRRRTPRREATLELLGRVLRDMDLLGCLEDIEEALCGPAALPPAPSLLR

T4: human TNFR2 (human, UniProt P20333 23-461)
T4 construct: whole, on cells
T4 sequence (looked up): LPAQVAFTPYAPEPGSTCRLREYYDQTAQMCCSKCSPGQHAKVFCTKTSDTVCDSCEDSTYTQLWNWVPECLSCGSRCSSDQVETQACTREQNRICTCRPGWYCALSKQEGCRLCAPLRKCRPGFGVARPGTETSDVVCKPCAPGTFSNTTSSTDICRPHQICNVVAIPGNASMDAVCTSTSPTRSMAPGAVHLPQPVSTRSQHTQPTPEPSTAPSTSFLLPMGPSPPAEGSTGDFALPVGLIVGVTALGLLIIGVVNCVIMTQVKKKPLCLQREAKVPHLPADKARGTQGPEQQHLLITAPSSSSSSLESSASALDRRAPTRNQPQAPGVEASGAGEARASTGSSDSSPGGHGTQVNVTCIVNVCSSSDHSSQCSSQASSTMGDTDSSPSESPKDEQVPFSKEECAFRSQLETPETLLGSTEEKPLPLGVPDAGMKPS

T5: human TNFR14 (human, UniProt Q92956 39-283)
T5 construct: whole, on cells
T5 sequence (looked up): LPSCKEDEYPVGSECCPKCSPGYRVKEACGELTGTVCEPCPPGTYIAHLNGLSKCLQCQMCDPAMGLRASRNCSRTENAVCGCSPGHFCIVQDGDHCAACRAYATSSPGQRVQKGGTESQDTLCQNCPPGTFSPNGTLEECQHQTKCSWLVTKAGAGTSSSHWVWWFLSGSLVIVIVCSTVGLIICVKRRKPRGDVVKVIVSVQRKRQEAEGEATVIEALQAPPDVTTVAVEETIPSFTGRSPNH

B1: 39C2 (antibody, IgG4, V domains shown)
VH: QVQLVQSGTEVKKPGASVKVSCKASGYTFPGYYMHWVRQAPGQGLEWMGWINPDSGGTKYTQKFQGRVTLTRDASVSTAYIDLNRLRSDDTAVYYCARERCRTTNCYLDYWGQGSLVTVSS
VL: QSALTQPASVSGSPGQSITISCTGTSSDVGNYNLVSWYQQHPGKAPKLMIYEVNRRPSGVSNRFSGSKSGNTASLTISGLQAEDEAEYYCCSYAGRDTFVVFGGGTKLTVLG
notes: also called 4887-1
B2: 37A6 (antibody, IgG4, V domains shown)
VH: QVQLVESGGGLVKPGGSLRLSCAASEFTFSDYYMSWIRQAPGKGLEWVSYISRSGDTIYYADSVKGRFTISRDNAKNSLYLQMNGLRAEDTAVYYCARDLAAGATGGLDCWGQGTLVTVSS
VL: SYELTQPPSVSVSPGQTASITCSGERLGNKYICWYQQKPGQSPVLVIYQDFKRPSGIPERFSGSNSGITATLTISGTQAMDEADYYCQAWDSRTVVFGGGTKLTVLG
notes: also called 4865-1
B3: 4G7 (antibody, IgG4, V domains shown)
VH: QVQLVQSGAEVKKPGASVKVSCKASGYTFAGYYMHWVRQAPGQGLEWMGWINPDSGGTNFAQQFQGRVTMTRDTSISTAYMEVSRLRSDDTAVFYCAREKITMTGIYFDYWGQGTLVTVSS
VL: DIQMTQSPSSLSASVGDILTITCRASQNITTYLNWYQQKPGKAPNLLISAASRLRSGVPSRFSGSGSGTDFTLTISSLQPVDFTTFYCQQTFTTPWTFGQGTKVEIKR
notes: also called 4869-1
B4: 29H10 (antibody, V domains shown)
VH: QVQLVQSGAEVTKPGASVKVSCKASGYTFAGYYMHWVRQAPGQGLEWMGWINPHSGGTNYAQKFQDRVTMTRDTSINTAYMELSRLRSDDTAVYYCARERISMVRGVGHNWFAPWGQGTLVTVSS
VL: DIQMTQSPSSLSASVGDRVTITCRASQDISNNLAWFQQKPGKPPKSLMYAASSLHSGVPSTFSGSGSGTDFTFTISSLQPEDFATYYCQQYNSYPLTFGGGTKVEIRR
notes: also called 4877-1
B5: 30A12 (antibody, IgG4, V domains shown)
VH: EVQLLESGGGLVQPGGSLRLSCAASGFTFSRNAMSWVRQAPGKGLEWVSATGGSGISTYYADSVKGRFTISRDNSKNTLYLQMNSLRAEDTAVYYCARGYSNSWWYFDYWGQGTLVTVSS
VL: QSALTQPASVSGSPGQSITISCTGTSSDVGNYNLVSWYQQHPGKAPKLMIFEVNQRPSGVSNRFSGSKSGTTASLTISGLQAADEADYFCCSYTTSSTYVIFGGGTKLTVLG
notes: also called 4878-1
B6: 36F3 (antibody, IgG4, V domains shown)
VH: QVQLQQSGPGLVKPSQTLSLTCAISGDSVSSSRTAWNWIRQSPSRGLEWLGRTYYRSKWYHDYSVSVKSRITIDPDTSKNQFSLQLNSVTPEDTAVYYCARGAAPFDYWGQGTLVTVSS
VL: EIVLTQSPGTLSLSPGERATLSCRASQSVSSNYLAWYQQKPGQAPRALIYAASNRAAGISDRFSGSGSGTDFTLTISRLEPEDFAVYFCQQYGSSPLTFGGGTKVEIKR
notes: also called 4891-1
B7: 35F11 (antibody, IgG4, V domains shown)
VH: QVQLVESGGGVVQPGRSLRLSCAASGFTLSSYGMHWVRQAPGKGLEWVAVIWYDGSNKYYADSVKGRVTISRDNSKNTLYLQMNSLRAEDTAVYYCTRDGRNYVYFDNWGQGTLVTVSS
VL: QSALTQPRSVSGSPGQSVTISCTGTSSDVGGYIFVSWYQQHPGKAPKLMIYDVSKRPSGVPDRFSGSKSVNTASLTISGLQAEDETDYYCCSYAGNYTYVFGTGTKVTVLG
notes: also called 4868-1
B8: 33H6 (antibody, IgG4, V domains shown)
VH: QVQLVQSGAEVKKPGASVKVSCKASGYTFPGYYMYWLRQAPGQGLEWMGWINPDSGDTNYAQKFQGRVTMTRDTSISTAFMELSRLRSDDTAVYYCAREKPRYFDSFYYYLMDVWGQGTTVTVSS
VL: DIQMTQSPSSLSASVGDRVTITCRAGQNISRHLNWYQQNPGKAPKVLIHPASSLPSGVPSRFSGSGSGTDFSLTISSLQPEDFGTYFCQQSYSTPPTFGGGTKVELKR
notes: also called 4883-1

Assays:
[1] = molecular target: T1, cynomolgus monkey CD40 on cells; assay: flow cytometry, HEK293 transfectants vs control cells
Description: (§1) The binding affinity of anti-human CD40 antibodies to human and cynomolgus monkey CD40 was measured by Octet assay (Table 3), quantifying association rate (Kon), disassociation rate (Kdis), and equilibrium binding constant (KD). Cross-reactivity of anti-CD40 antibodies to related TNF receptor superfamily (TNFRSF) members was evaluated by expressing human TNFR1, TNFR2, TNFR10, or TNFR14 on HEK293 cells by transient transfection of expression vectors encoding these genes. Binding of indicated anti-human CD40 antibody to these transfected cells was determined by flow cytometry. […] Cross-reactivity of anti-CD40 antibodies to cynomolgus monkey and mouse CD40 was evaluated by expressing cynomolgus monkey or mouse CD40 on HEK293 cells by transient transfection of expression vectors encoding these genes. Binding of indicated anti-human CD40 antibody to cells overexpressing cynomolgus monkey and mouse CD40 was determined by flow cytometry.

mouse CD40 on cells = molecular target: T2, mouse CD40 on cells; assay: as above
Description: as §1

human TNFR1 = molecular target: T3, human TNFR1; assay: as above
Description: as §1

human TNFR2 = molecular target: T4, human TNFR2; assay: as above
Description: as §1

human TNFR10 = molecular target: T6, human TNFR10 (human); assay: as above
T6 construct: whole, on cells; Name as printed is ambiguous (TNFRSF10A-D)
Description: as §1

human TNFR14 = molecular target: T5, human TNFR14; assay: as above
Description: as §1

human CD40 on cells = molecular target: T7, human CD40 on cells (human, UniProt P25942 21-277); assay: flow cytometry, labelled CD40L on CD40-293T cells, antibody at 10 ug/ml
T7 construct: also called CD40 receptor on human B cells
T7 sequence (P25942 21-277 limits assumed): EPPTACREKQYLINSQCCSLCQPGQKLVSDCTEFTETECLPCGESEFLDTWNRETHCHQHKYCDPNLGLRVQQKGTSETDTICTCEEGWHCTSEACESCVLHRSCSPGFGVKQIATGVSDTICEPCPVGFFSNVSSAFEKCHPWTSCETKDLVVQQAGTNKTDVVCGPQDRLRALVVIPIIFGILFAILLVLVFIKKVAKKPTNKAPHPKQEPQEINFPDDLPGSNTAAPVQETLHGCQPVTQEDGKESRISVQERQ
Description: Percent ligand binding inhibition was calculated as [(CD40L binding gMFI in the absence of anti-CD40)−(CD40L binding gMFI in the presence of anti-CD40)]/(CD40L binding gMFI in the absence of anti-CD40). gMFI: geometric mean fluorescent intensity. All anti-CD40 antibodies show minimal effects on the ability of CD40L to bind to the CD40 receptor (Table 7).

| Binder | fold over control (gMFI) [1] | fold over control (gMFI) (mouse CD40 on cells) | fold over control (gMFI) (human TNFR1) | fold over control (gMFI) (human TNFR2) | fold over control (gMFI) (human TNFR10) | fold over control (gMFI) (human TNFR14) | Ligand Binding Inhibition (%) (human CD40 on cells) |
| --- | --- | --- | --- | --- | --- | --- | --- |
| B1 | 87 fold | 0.9 fold | 1 fold | 0.9 fold | 0.86 fold | 0.89 fold | 3% |
| B2 | 92 fold | 0.9 fold | 0.99 fold | 0.87 fold | 0.88 fold | 0.87 fold | 6% |
| B3 | 57 fold | 0.9 fold | 0.97 fold | 0.9 fold | 0.87 fold | 0.89 fold | 14% |
| B4 | 71 fold | 0.8 fold | 0.98 fold | 0.88 fold | 0.89 fold | 0.84 fold | 1% |
| B5 | 71 fold | 1.3 fold | 1.07 fold | 0.89 fold | 0.91 fold | 0.96 fold | -8% |
| B6 | 82 fold | 0.9 fold | 0.99 fold | 0.92 fold | 0.86 fold | 0.88 fold | 14% |
| B7 | 76 fold | 0.8 fold | 1 fold | 0.85 fold | 0.73 fold | 0.74 fold | 51% |
| B8 | 74 fold | 0.9 fold | 1 fold | 0.81 fold | 0.77 fold | 0.8 fold | 11% |
